According to PMC3970758, “A conserved MCM single-stranded DNA binding element is essential for replication initiation”:

Assays:
[1] = target: T1, PfMCMN F202A (Pyrococcus furiosus, UniProt Q8U3I4 1-256, F202A); assay: EMSA; 5 mM Mg2+; EMSA: 20 mM HEPES pH 7.6, 200 mM NaCl, 5 mM MgCl2, 5 mM bME, 25 C, 30 min, 160 nM DNA; 4-20% TBE PAGE; conditions: protein: recombinant; tags: His6-SUMO removed by Ulp1; label: 5'-fluorescein
T1 sequence: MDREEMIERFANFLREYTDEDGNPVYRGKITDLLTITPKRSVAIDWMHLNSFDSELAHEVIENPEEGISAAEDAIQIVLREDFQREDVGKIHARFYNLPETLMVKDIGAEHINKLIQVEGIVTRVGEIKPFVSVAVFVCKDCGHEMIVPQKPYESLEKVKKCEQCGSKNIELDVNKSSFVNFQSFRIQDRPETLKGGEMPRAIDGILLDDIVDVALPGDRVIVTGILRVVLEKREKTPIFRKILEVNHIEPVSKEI

[2] = target: T2, PfMCMN K233A (Pyrococcus furiosus, UniProt Q8U3I4 1-256, K233A); assay: as above; conditions: protein: recombinant; tags: His6-SUMO removed by Ulp1; label: 5'-fluorescein
T2 sequence: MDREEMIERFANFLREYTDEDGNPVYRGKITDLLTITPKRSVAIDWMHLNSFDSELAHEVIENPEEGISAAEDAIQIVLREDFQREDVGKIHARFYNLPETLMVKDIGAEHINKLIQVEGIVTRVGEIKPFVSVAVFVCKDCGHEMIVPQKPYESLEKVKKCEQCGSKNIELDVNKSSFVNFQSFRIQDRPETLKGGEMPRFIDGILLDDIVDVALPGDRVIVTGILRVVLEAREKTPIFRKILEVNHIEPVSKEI

[3] = target: T3, PfMCMN R124A (Pyrococcus furiosus, UniProt Q8U3I4 1-256, R124A); assay: as above; conditions: protein: recombinant; tags: His6-SUMO removed by Ulp1; label: 5'-fluorescein
T3 sequence: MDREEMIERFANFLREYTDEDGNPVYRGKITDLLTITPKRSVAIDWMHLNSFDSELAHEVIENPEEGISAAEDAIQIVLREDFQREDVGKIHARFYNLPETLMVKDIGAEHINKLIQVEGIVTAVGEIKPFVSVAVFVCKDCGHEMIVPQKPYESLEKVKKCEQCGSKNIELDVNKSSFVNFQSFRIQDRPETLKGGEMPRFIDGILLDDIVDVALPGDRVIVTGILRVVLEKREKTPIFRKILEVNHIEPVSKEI

[4] = target: T4, PfMCMN R186A (Pyrococcus furiosus, UniProt Q8U3I4 1-256, R186A); assay: as above; conditions: protein: recombinant; tags: His6-SUMO removed by Ulp1; label: 5'-fluorescein
T4 sequence: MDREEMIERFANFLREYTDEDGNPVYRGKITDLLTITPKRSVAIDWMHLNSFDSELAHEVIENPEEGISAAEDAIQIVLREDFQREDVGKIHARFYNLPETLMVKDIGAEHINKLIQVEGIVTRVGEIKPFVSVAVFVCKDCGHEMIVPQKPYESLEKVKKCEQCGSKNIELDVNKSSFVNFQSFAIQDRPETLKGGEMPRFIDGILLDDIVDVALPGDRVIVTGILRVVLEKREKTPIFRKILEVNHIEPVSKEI

[5] = target: T5, PfMCMN K129A (Pyrococcus furiosus, UniProt Q8U3I4 1-256, K129A); assay: as above; conditions: protein: recombinant; tags: His6-SUMO removed by Ulp1; label: 5'-fluorescein
T5 sequence: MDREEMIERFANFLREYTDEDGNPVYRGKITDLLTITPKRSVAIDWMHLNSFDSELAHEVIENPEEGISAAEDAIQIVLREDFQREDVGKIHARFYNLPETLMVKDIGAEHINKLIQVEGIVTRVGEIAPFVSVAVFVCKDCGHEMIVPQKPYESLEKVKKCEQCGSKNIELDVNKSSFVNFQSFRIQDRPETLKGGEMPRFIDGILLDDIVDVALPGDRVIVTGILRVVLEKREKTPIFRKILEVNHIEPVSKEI

[6] = target: T6, PfMCMN R124A/R186A (Pyrococcus furiosus, UniProt Q8U3I4 1-256, R124A;R186A); assay: EMSA; 5 mM Mg2+; protein 54-270 uM; EMSA: 20 mM HEPES pH 7.6, 200 mM NaCl, 5 mM MgCl2, 5 mM bME, 25 C, 30 min, 160 nM DNA; 4-20% TBE PAGE; conditions: protein: recombinant; tags: His6-SUMO removed by Ulp1; label: 5'-fluorescein
T6 sequence: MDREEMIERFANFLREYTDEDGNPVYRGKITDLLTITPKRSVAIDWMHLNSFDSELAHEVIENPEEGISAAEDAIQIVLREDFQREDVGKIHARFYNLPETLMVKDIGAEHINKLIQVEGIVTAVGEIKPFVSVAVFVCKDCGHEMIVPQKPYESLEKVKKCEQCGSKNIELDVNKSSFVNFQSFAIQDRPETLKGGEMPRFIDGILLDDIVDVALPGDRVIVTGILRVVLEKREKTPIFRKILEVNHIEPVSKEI

[7] = target: T3, PfMCMN R124A; assay: EMSA; 5 mM Mg2+; EMSA: 20 mM HEPES pH 7.6, 200 mM NaCl, 5 mM MgCl2, 5 mM bME, 25 C, 30 min, 160 nM DNA; 4-20% TBE PAGE; conditions: protein: recombinant; tags: His6-SUMO removed by Ulp1; label: 5'-fluorescein on strand 1; blunt
[8] = target: T4, PfMCMN R186A; assay: as above; conditions: protein: recombinant; tags: His6-SUMO removed by Ulp1; label: 5'-fluorescein on strand 1; blunt
[9] = target: T5, PfMCMN K129A; assay: as above; conditions: protein: recombinant; tags: His6-SUMO removed by Ulp1; label: 5'-fluorescein on strand 1; blunt
[10] = target: T6, PfMCMN R124A/R186A; assay: EMSA; 5 mM Mg2+; protein 10-40 uM; EMSA: 20 mM HEPES pH 7.6, 200 mM NaCl, 5 mM MgCl2, 5 mM bME, 25 C, 30 min, 160 nM DNA; 4-20% TBE PAGE; conditions: protein: recombinant; tags: His6-SUMO removed by Ulp1; label: 5'-fluorescein on strand 1; blunt

B1: T40 ssDNA (ssDNA)
DNA: TTTTTTTTTTTTTTTTTTTTTTTTTTTTTTTTTTTTTTTT
binding result [1]: binds | binding result [2]: binds | binding signal [3]: 7 fold reduction vs WT | binding signal [4]: 6 fold reduction vs WT | binding signal [5]: 4 fold reduction vs WT | binding signal [6]: 25 fold reduction vs WT

B2: 26-mer dsDNA (dsDNA)
DNA 1: ATGGCAGATCTCAATTGGATATCGGC
DNA 2: GCCGATATCCAATTGAGATCTGCCAT
binding result [7]: binds | binding result [8]: binds | binding result [9]: binds | binding signal [10]: 3 fold reduction vs WT
